From patent US6600012 (BIOMIRA, dated 2003) come the findings set out here.

The labels stand for the following.
B1: SIINFEKL, 8-mer ovalbumin (OVA) peptide (peptide)
peptide: SIINFEKL
notes: It is the positive control for HLA.A2 upregulation and the negative control for killing

The first test concerns the target T1, HLA.A2 on T2 mutant cells.
T1 construct: MHC class I molecule on the T2 cell surface; also called HLA.A2.1; class I on T2 cells
Kind of test: T2 cell HLA.A2 upregulation assay, flow cytometry with MA2.1. (Flow cytometry measures light scatter and fluorescence of single cells or particles in a stream.)
In the case of APDTRPAPG [APDTRPAPG, MUC-1 tandem repeat synthetic 9 mer], the “% Change in mean channel intensity” value came out at 66%.
In the case of TSAPDTRPA (also called TSA 9 mer; 9 mers TSA . .) [TSAPDTRPA, MUC-1 tandem repeat synthetic 9 mer], the “% Change in mean channel intensity” value was determined as 256%.
On the same count and under the same terms, for PDTRPAPGS [PDTRPAPGS, MUC-1 tandem repeat synthetic 9 mer] the value was 3%.
As for GVTSAPDTR [GVTSAPDTR, MUC-1 tandem repeat synthetic 9 mer], the “% Change in mean channel intensity” value is 12%.
Turning to DTRPAPGST [DTRPAPGST, MUC-1 tandem repeat synthetic 9 mer], the “% Change in mean channel intensity” value was found to be 52%.
The same measure, in the same setting: the result for VTSAPDTRP [VTSAPDTRP, MUC-1 tandem repeat synthetic 9 mer] reads 29%.

For another test, the target named is T1, HLA.A2 on T2 mutant cells. Kind of test: T2 cell HLA.A2 upregulation assay, flow cytometry.
For the molecule B1, the binding result is on record as “binds”.
Same read-out and setting: for TSAPDTR (also called 7 mer TSA . . . peptide) [TSAPDTR, MUC-1 synthetic 7 mer] the value was “no binding (tested: 50 µM/well)”.
